{"source": "patent US20030125257A1", "about": "“Assay for identifying beta secretase inhibitors” (priority 2001, published 2003)", "molecular_target": "purified full-length human BACE with six C-terminal His residues, expressed in Sf9 insect cells (human) (UniProt P56817)", "sequence (P56817 other isoform, or with tags, fused parts or gaps limits assumed)": "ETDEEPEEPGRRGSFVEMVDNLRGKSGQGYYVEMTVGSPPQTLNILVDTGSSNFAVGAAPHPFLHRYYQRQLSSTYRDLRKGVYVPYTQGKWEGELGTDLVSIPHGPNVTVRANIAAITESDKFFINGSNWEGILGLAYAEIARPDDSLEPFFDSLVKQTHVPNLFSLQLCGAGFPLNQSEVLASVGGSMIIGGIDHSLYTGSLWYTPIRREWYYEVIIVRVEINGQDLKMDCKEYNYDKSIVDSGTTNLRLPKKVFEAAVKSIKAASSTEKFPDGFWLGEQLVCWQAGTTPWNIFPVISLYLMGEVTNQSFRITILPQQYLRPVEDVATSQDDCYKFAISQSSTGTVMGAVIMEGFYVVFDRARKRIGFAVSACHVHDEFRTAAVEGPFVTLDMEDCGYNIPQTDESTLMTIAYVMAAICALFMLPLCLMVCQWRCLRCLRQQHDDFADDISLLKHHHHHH", "experiment": "competitive radioligand binding assay, cholic acid against Tween-20 in the binding buffer"}
{"substance": "peptide H-4848 (Bachem), described in Nature, 1999, 402, 537", "values": [{"measurement": "fold reduction of IC-50 with cholic acid compared to Tween-20", "result": "3 to 4", "unit": "times"}]}
